Experimental data published in patent US20150337019A1 (MANUKAMED HOLDINGS LIMITED PARTNERSHIP, published 2015).

Each binder was assayed against T1, Cathepsin B from bovine spleen (bovine, UniProt P07688 80-332) (assay: cell-based or functional assay).

Row | Binder | Cathepsin B inhibition test, 2 mM peptide
1 | Ac-Thr-Asn-Arg-OH (also: MGO-modified, site not given here) [MGO-modified Ac-TNR-OH] | 91.7
2 | H-Met-Asp-Lys-OH [H-MDK-OH] | 104
3 | H-Met-Asp-Lys-OH (also: MGO-modified, site not given here) [MGO-modified H-MDK-OH] | 70.6
4 | Ac-Met-Asp-Lys-OH [Ac-MDK-OH] | 110
5 | Ac-Met-Asp-Lys-OH (also: MGO-modified, site not given here) [MGO-modified Ac-MDK-OH] | 99.4
6 | H-Met-Asp-Arg-OH [H-MDR-OH] | 102
7 | H-Met-Asp-Arg-OH (also: MGO-modified, site not given here) [MGO-modified H-MDR-OH] | 74.5
8 | Ac-Met-Asp-Arg-OH [Ac-MDR-OH] | 107
9 | Ac-Met-Asp-Arg-OH (also: MGO-modified, site not given here) [MGO-modified Ac-MDR-OH] | 88.6
10 | H-Thr-Asp-Lys-OH [H-TDK-OH] | 103
11 | H-Thr-Asp-Lys-OH (also: MGO-modified, site not given here) [MGO-modified H-TDK-OH] | 87.5
12 | Ac-Thr-Asp-Lys-OH [Ac-TDK-OH] | 101
13 | Ac-Thr-Asp-Lys-OH (also: MGO-modified, site not given here) [MGO-modified Ac-TDK-OH] | 92.8
14 | H-Ile-Asp-Arg-OH [H-IDR-OH] | 98
15 | H-Ile-Asp-Arg-OH (also: MGO-modified, site not given here) [MGO-modified H-IDR-OH] | 85.6
16 | Ac-Ile-Asp-Arg-OH [Ac-IDR-OH] | 93.5
17 | Ac-Ile-Asp-Arg-OH (also: MGO-modified, site not given here) [MGO-modified Ac-IDR-OH] | 81.8
18 | H-Val-Asn-Arg-OH [H-VNR-OH] | 97.8

Row | Binder | Cathepsin B inhibition test, 2 mM peptide
19 | H-Val-Asn-Arg-OH (also: MGO-modified, site not given here) [MGO-modified H-VNR-OH] | 82.6
20 | Ac-Val-Asn-Arg-OH [Ac-VNR-OH] | 99.8
21 | Ac-Val-Asn-Arg-OH (also: MGO-modified, site not given here) [MGO-modified Ac-VNR-OH] | 68.5
22 | H-Met-His-Arg-OH [H-MHR-OH] | 96.8
23 | H-Met-His-Arg-OH (also: MGO-modified, site not given here) [MGO-modified H-MHR-OH] | 80.7
24 | Ac-Met-His-Arg-OH [Ac-MHR-OH] | 101
25 | Ac-Met-His-Arg-OH (also: MGO-modified, site not given here) [MGO-modified Ac-MHR-OH] | 90.1
26 | H-Met-Asn-Arg-OH (also: MGO-modified, site not given here) [MGO-modified H-MNR-OH] | 78.6
27 | Ac-Met-Asn-Arg-OH [Ac-MNR-OH] | 101
28 | Ac-Met-Asn-Arg-OH (also: MGO-modified, site not given here) [MGO-modified Ac-MNR-OH] | 86.9
29 | H-Leu-Gln-Lys-OH [H-LQK-OH] | 102
30 | H-Leu-Gln-Lys-OH (also: MGO-modified, site not given here) [MGO-modified H-LQK-OH] | 95.3
31 | Ac-Leu-Gln-Lys-OH [Ac-LQK-OH] | 102
32 | Ac-Leu-Gln-Lys-OH (also: MGO-modified, site not given here) [MGO-modified Ac-LQK-OH] | 90.2
33 | H-Thr-Asn-Arg-OH [H-TNR-OH] | 103
34 | H-Thr-Asn-Arg-OH (also: MGO-modified, site not given here) [MGO-modified H-TNR-OH] | 91.9
35 | Ac-Thr-Asn-Arg-OH [Ac-TNR-OH] | 96.5

Biological target: T1, Cathepsin B from bovine spleen
Test: cell-based or functional assay
Remark: another data set of the same source

Row | Binder | Cathepsin B inhibition test, 2 mM peptide
36 | H-Phe-Asp-Arg-OH [H-FDR-OH] | 175
37 | H-Phe-Asp-Arg-OH (also: MGO-modified, site not given here) [MGO-modified H-FDR-OH] | 71.2
38 | Ac-Phe-Asp-Arg-OH [Ac-FDR-OH] | 85.6
39 | Ac-Phe-Asp-Arg-OH (also: MGO-modified, site not given here) [MGO-modified Ac-FDR-OH] | 44.8
40 | H-HNIR-OH [H-HNIR-OH] | 152
41 | H-HNIR-OH (also: MGO-modified, site not given here) [MGO-modified H-HNIR-OH] | 103
42 | Ac-HNIR-OH [Ac-HNIR-OH] | 172
43 | Ac-HNIR-OH (also: MGO-modified, site not given here) [MGO-modified Ac-HNIR-OH] | 107
44 | H-YINR-OH [H-YINR-OH] | 142
45 | H-YINR-OH (also: MGO-modified, site not given here) [MGO-modified H-YINR-OH] | 79.2
46 | Ac-YINR-OH [Ac-YINR-OH] | 93.1
47 | Ac-YINR-OH (also: MGO-modified, site not given here) [MGO-modified Ac-YINR-OH] | 99
48 | H-Phe-Thr-Lys-OH [H-FTK-OH] | 148
49 | H-Phe-Thr-Lys-OH (also: MGO-modified, site not given here) [MGO-modified H-FTK-OH] | 76.6
50 | Ac-Phe-Thr-Lys-OH [Ac-FTK-OH] | 149
51 | Ac-Phe-Thr-Lys-OH (also: MGO-modified, site not given here) [MGO-modified Ac-FTK-OH] | 105
52 | H-IFVTMLR-OH [H-IFVTMLR-OH] | 80.5
53 | H-IFVTMLR-OH (also: MGO-modified, site not given here) [MGO-modified H-IFVTMLR-OH] | 78.7
54 | Ac-IFVTMLR-OH [Ac-IFVTMLR-OH] | 88.3
55 | Ac-IFVTMLR-OH (also: MGO-modified, site not given here) [MGO-modified Ac-IFVTMLR-OH] | 92.6
56 | H-Met-Gln-Lys-OH [H-MQK-OH] | 127
